Where no end group is shown, it is not given here. [ ]: non-standard residue; d: D form.
T1: leptin receptor (ObR) (UniProt P48357 22-1165, limits assumed)
T1 sequence (looked up): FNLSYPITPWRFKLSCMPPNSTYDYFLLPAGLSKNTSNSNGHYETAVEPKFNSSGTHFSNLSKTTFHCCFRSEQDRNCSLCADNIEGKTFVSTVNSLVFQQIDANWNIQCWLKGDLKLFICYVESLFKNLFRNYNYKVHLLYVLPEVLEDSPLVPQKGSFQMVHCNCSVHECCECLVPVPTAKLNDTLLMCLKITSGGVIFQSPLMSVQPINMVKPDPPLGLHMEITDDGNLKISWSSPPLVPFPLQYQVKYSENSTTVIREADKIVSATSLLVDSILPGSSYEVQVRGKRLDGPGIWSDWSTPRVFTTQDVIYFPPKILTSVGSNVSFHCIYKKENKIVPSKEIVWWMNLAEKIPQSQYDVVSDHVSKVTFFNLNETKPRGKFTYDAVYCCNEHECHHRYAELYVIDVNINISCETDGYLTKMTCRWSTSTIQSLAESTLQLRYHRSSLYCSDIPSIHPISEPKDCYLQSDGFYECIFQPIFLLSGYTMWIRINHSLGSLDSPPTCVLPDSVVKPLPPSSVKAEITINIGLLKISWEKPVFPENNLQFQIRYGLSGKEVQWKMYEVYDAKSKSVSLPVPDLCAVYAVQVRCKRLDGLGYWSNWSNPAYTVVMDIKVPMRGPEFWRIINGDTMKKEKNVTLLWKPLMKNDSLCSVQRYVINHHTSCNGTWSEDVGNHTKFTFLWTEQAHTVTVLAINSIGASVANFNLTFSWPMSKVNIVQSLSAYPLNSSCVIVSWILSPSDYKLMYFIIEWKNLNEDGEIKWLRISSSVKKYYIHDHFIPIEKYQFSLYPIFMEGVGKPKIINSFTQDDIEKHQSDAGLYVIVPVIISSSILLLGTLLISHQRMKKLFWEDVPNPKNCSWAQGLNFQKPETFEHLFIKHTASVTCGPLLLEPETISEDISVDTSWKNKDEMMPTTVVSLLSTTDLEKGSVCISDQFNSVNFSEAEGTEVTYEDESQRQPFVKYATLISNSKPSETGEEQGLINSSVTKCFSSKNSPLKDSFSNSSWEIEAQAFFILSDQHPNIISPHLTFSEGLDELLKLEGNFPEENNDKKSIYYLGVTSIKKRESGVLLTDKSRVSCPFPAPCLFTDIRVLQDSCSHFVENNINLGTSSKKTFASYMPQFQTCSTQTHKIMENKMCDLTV

B1: Retro-inverso LPA-1(24-6), D-V10 (peptide)
peptide: H-[dI][dD][dN][dI][dR][dT][dV][dI][dT][dK][dI][dL][dT][dK][dV][dD][dD][dQ][dV]-NH2
SMILES: CC[C@@H](C)[C@@H](N)C(=O)N[C@H](CC(=O)O)C(=O)N[C@H](CC(N)=O)C(=O)N[C@@H](C(=O)N[C@H](CCCNC(=N)N)C(=O)N[C@@H](C(=O)N[C@@H](C(=O)N[C@@H](C(=O)N[C@@H](C(=O)N[C@H](CCCCN)C(=O)N[C@@H](C(=O)N[C@H](CC(C)C)C(=O)N[C@@H](C(=O)N[C@H](CCCCN)C(=O)N[C@@H](C(=O)N[C@H](CC(=O)O)C(=O)N[C@H](CC(=O)O)C(=O)N[C@H](CCC(N)=O)C(=O)N[C@@H](C(N)=O)C(C)C)C(C)C)[C@H](C)O)[C@H](C)CC)[C@H](C)O)[C@H](C)CC)C(C)C)[C@H](C)O)[C@H](C)CC
B2: Retro-inverso LPA-2(89-72), D-V79 (peptide)
peptide: H-[dV][dH][dL][dL][dD][dR][dL][dN][dE][dL][dV][dN][dS][dI][dQ][dI][dV][dN]-NH2
SMILES: CC[C@@H](C)[C@@H](NC(=O)[C@@H](CO)NC(=O)[C@@H](CC(N)=O)NC(=O)[C@H](NC(=O)[C@@H](CC(C)C)NC(=O)[C@@H](CCC(=O)O)NC(=O)[C@@H](CC(N)=O)NC(=O)[C@@H](CC(C)C)NC(=O)[C@@H](CCCNC(=N)N)NC(=O)[C@@H](CC(=O)O)NC(=O)[C@@H](CC(C)C)NC(=O)[C@@H](CC(C)C)NC(=O)[C@@H](Cc1c[nH]cn1)NC(=O)[C@H](N)C(C)C)C(C)C)C(=O)N[C@H](CCC(N)=O)C(=O)N[C@@H](C(=O)N[C@@H](C(=O)N[C@H](CC(N)=O)C(N)=O)C(C)C)[C@H](C)CC
B3: Retro-inverso LPA-2(89-72), D-I79 (peptide)
peptide: H-[dV][dH][dL][dL][dD][dR][dL][dN][dE][dL][dI][dN][dS][dI][dQ][dI][dV][dN]-NH2
SMILES: CC[C@@H](C)[C@@H](NC(=O)[C@@H](CC(C)C)NC(=O)[C@@H](CCC(=O)O)NC(=O)[C@@H](CC(N)=O)NC(=O)[C@@H](CC(C)C)NC(=O)[C@@H](CCCNC(=N)N)NC(=O)[C@@H](CC(=O)O)NC(=O)[C@@H](CC(C)C)NC(=O)[C@@H](CC(C)C)NC(=O)[C@@H](Cc1c[nH]cn1)NC(=O)[C@H](N)C(C)C)C(=O)N[C@H](CC(N)=O)C(=O)N[C@H](CO)C(=O)N[C@@H](C(=O)N[C@H](CCC(N)=O)C(=O)N[C@@H](C(=O)N[C@@H](C(=O)N[C@H](CC(N)=O)C(N)=O)C(C)C)[C@H](C)CC)[C@H](C)CC
B4: Retro-inverso LPA-1(24-6), D-I10 (peptide)
peptide: H-[dI][dD][dN][dI][dR][dT][dV][dI][dT][dK][dI][dL][dT][dK][dI][dD][dD][dQ][dV]-NH2
SMILES: CC[C@@H](C)[C@@H](N)C(=O)N[C@H](CC(=O)O)C(=O)N[C@H](CC(N)=O)C(=O)N[C@@H](C(=O)N[C@H](CCCNC(=N)N)C(=O)N[C@@H](C(=O)N[C@@H](C(=O)N[C@@H](C(=O)N[C@@H](C(=O)N[C@H](CCCCN)C(=O)N[C@@H](C(=O)N[C@H](CC(C)C)C(=O)N[C@@H](C(=O)N[C@H](CCCCN)C(=O)N[C@@H](C(=O)N[C@H](CC(=O)O)C(=O)N[C@H](CC(=O)O)C(=O)N[C@H](CCC(N)=O)C(=O)N[C@@H](C(N)=O)C(C)C)[C@H](C)CC)[C@H](C)O)[C@H](C)CC)[C@H](C)O)[C@H](C)CC)C(C)C)[C@H](C)O)[C@H](C)CC
B5: Retro-inverso LPA-1(24-6), D-T10 (peptide)
peptide: H-[dI][dD][dN][dI][dR][dT][dV][dI][dT][dK][dI][dL][dT][dK][dT][dD][dD][dQ][dV]-NH2
SMILES: CC[C@@H](C)[C@@H](N)C(=O)N[C@H](CC(=O)O)C(=O)N[C@H](CC(N)=O)C(=O)N[C@@H](C(=O)N[C@H](CCCNC(=N)N)C(=O)N[C@@H](C(=O)N[C@@H](C(=O)N[C@@H](C(=O)N[C@@H](C(=O)N[C@H](CCCCN)C(=O)N[C@@H](C(=O)N[C@H](CC(C)C)C(=O)N[C@@H](C(=O)N[C@H](CCCCN)C(=O)N[C@@H](C(=O)N[C@H](CC(=O)O)C(=O)N[C@H](CC(=O)O)C(=O)N[C@H](CCC(N)=O)C(=O)N[C@@H](C(N)=O)C(C)C)[C@H](C)O)[C@H](C)O)[C@H](C)CC)[C@H](C)O)[C@H](C)CC)C(C)C)[C@H](C)O)[C@H](C)CC
B6: Retro-inverso LPA-2(89-72), D-D79 (peptide)
peptide: H-[dV][dH][dL][dL][dD][dR][dL][dN][dE][dL][dD][dN][dS][dI][dQ][dI][dV][dN]-NH2
SMILES: CC[C@@H](C)[C@@H](NC(=O)[C@@H](CO)NC(=O)[C@@H](CC(N)=O)NC(=O)[C@@H](CC(=O)O)NC(=O)[C@@H](CC(C)C)NC(=O)[C@@H](CCC(=O)O)NC(=O)[C@@H](CC(N)=O)NC(=O)[C@@H](CC(C)C)NC(=O)[C@@H](CCCNC(=N)N)NC(=O)[C@@H](CC(=O)O)NC(=O)[C@@H](CC(C)C)NC(=O)[C@@H](CC(C)C)NC(=O)[C@@H](Cc1c[nH]cn1)NC(=O)[C@H](N)C(C)C)C(=O)N[C@H](CCC(N)=O)C(=O)N[C@@H](C(=O)N[C@@H](C(=O)N[C@H](CC(N)=O)C(N)=O)C(C)C)[C@H](C)CC
B7: Retro-inverso LPA-1(24-6), D-L10 (peptide)
peptide: H-[dI][dD][dN][dI][dR][dT][dV][dI][dT][dK][dI][dL][dT][dK][dL][dD][dD][dQ][dV]-NH2
SMILES: CC[C@@H](C)[C@@H](N)C(=O)N[C@H](CC(=O)O)C(=O)N[C@H](CC(N)=O)C(=O)N[C@@H](C(=O)N[C@H](CCCNC(=N)N)C(=O)N[C@@H](C(=O)N[C@@H](C(=O)N[C@@H](C(=O)N[C@@H](C(=O)N[C@H](CCCCN)C(=O)N[C@@H](C(=O)N[C@H](CC(C)C)C(=O)N[C@@H](C(=O)N[C@H](CCCCN)C(=O)N[C@H](CC(C)C)C(=O)N[C@H](CC(=O)O)C(=O)N[C@H](CC(=O)O)C(=O)N[C@H](CCC(N)=O)C(=O)N[C@@H](C(N)=O)C(C)C)[C@H](C)O)[C@H](C)CC)[C@H](C)O)[C@H](C)CC)C(C)C)[C@H](C)O)[C@H](C)CC
B8: Retro-inverso LPA-2(89-72), D-L79 (peptide)
peptide: H-[dV][dH][dL][dL][dD][dR][dL][dN][dE][dL][dL][dN][dS][dI][dQ][dI][dV][dN]-NH2
SMILES: CC[C@@H](C)[C@@H](NC(=O)[C@@H](CO)NC(=O)[C@@H](CC(N)=O)NC(=O)[C@@H](CC(C)C)NC(=O)[C@@H](CC(C)C)NC(=O)[C@@H](CCC(=O)O)NC(=O)[C@@H](CC(N)=O)NC(=O)[C@@H](CC(C)C)NC(=O)[C@@H](CCCNC(=N)N)NC(=O)[C@@H](CC(=O)O)NC(=O)[C@@H](CC(C)C)NC(=O)[C@@H](CC(C)C)NC(=O)[C@@H](Cc1c[nH]cn1)NC(=O)[C@H](N)C(C)C)C(=O)N[C@H](CCC(N)=O)C(=O)N[C@@H](C(=O)N[C@@H](C(=O)N[C@H](CC(N)=O)C(N)=O)C(C)C)[C@H](C)CC

target: T1, leptin receptor (ObR); assay: cell-based or functional assay

B1 and B2 are within 1.5-fold of each other in “IC50, inhibition of leptin-induced growth of MCF-7 cells” value (from here on “IC50, inhibition”): 0.0174 µM for the first, 0.0136 µM for the second.

Going from B3 to B4, the “IC50, inhibition” value rises from 0.0097 µM to 0.0176 µM (1.8-fold).

B5 and B6 are within 1.5-fold of each other in “IC50, inhibition” value: 0.0169 µM for the first, 0.0194 µM for the second.

First: IQKVQDDTKTLIKTIVTRINDISHTQSVSSKQ-NH2 [Full-length LPA-1 (3-34)]
Second: B7
The “IC50, inhibition” value of the first is 3.3-fold higher: 0.0391 µM for the first, 0.0118 µM for the second.

B8 was tested, and the “IC50, inhibition” value was 0.0187 µM.

target: T1, leptin receptor (ObR); assay: cell-based or functional assay; remark: another data set of the same source

Compared with NVIQISNILENLRDLLHV-NH2 [Truncated LPA-2 (72-89), D79 Ile substitution], IQKVQDDTKTLIKTIVTRINDISHTQSVSSKQ-NH2 [Full-length LPA-1 (3-34)] is 2.4-fold higher in “IC50 (half maximal inhibitory concentration), inhibition of leptin-induced cell growth” value (shortened to “IC50 … inhibition of leptin-induced cell growth”): 0.016 µM for the first, 0.0391 µM for the second.

Compared with NVIQISNALENLRDLLHV-NH2 [Truncated LPA-2 (72-89), D79 Ala substitution], VQDDAKTLIKTIVTRINDI-NH2 [Truncated LPA-1 (6-24), T10 Ala substitution] is 1.6-fold higher in “IC50 … inhibition of leptin-induced cell growth” value: 0.054 µM for the first, 0.088 µM for the second.

NVIQISNLLENLRDLLHV-NH2 [Truncated LPA-2 (72-89), D79 Leu substitution] and VQDDIKTLIKTIVTRINDI-NH2 [Truncated LPA-1 (6-24), T10 Ile substitution] are within 1.5-fold of each other in “IC50 … inhibition of leptin-induced cell growth” value: 0.016 µM for the first, 0.021 µM for the second.

VQDDVKTLIKTIVTRINDI-NH2 [Truncated LPA-1 (6-24), T10 Val substitution] and NVIQISNVLENLRDLLHV-NH2 [Truncated LPA-2 (72-89), D79 Val substitution] are within 1.5-fold of each other in “IC50 … inhibition of leptin-induced cell growth” value: 0.0207 µM for the first, 0.0156 µM for the second.
